Measurements as given in patent publication US20210386836.

Tests used:
[1] = molecular target: T1, C-Reactive protein, P02741
T1 chain: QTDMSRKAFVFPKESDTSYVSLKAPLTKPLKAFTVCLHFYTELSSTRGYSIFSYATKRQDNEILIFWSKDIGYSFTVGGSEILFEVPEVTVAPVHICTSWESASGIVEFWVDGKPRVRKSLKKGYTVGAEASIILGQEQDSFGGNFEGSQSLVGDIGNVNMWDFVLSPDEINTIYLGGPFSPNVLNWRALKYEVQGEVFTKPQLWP

[2] = molecular target: T2, C4-Binding protein, P04003
T2 chain 1: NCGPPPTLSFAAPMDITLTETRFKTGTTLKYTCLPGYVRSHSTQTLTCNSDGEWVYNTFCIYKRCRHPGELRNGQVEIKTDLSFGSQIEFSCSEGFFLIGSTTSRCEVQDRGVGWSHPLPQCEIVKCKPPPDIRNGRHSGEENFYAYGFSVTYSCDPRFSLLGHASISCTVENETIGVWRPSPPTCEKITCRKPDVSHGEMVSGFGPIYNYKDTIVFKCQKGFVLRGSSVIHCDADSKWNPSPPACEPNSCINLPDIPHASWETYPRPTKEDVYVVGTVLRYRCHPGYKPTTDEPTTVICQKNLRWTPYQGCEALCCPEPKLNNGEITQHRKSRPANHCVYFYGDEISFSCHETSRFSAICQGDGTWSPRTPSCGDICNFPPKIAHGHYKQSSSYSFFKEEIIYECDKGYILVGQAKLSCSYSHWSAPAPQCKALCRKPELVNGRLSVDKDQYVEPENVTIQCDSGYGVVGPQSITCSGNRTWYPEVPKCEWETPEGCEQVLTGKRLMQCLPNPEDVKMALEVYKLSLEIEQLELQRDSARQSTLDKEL
T2 chain 2: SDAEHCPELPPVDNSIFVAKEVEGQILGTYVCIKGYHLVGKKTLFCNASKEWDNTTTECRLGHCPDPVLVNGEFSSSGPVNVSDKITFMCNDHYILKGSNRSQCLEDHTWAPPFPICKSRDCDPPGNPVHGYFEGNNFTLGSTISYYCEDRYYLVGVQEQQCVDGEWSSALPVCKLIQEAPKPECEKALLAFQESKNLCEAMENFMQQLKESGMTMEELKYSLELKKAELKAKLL

Factor H, P08603 = molecular target: T3, Factor H, P08603
T3 chain: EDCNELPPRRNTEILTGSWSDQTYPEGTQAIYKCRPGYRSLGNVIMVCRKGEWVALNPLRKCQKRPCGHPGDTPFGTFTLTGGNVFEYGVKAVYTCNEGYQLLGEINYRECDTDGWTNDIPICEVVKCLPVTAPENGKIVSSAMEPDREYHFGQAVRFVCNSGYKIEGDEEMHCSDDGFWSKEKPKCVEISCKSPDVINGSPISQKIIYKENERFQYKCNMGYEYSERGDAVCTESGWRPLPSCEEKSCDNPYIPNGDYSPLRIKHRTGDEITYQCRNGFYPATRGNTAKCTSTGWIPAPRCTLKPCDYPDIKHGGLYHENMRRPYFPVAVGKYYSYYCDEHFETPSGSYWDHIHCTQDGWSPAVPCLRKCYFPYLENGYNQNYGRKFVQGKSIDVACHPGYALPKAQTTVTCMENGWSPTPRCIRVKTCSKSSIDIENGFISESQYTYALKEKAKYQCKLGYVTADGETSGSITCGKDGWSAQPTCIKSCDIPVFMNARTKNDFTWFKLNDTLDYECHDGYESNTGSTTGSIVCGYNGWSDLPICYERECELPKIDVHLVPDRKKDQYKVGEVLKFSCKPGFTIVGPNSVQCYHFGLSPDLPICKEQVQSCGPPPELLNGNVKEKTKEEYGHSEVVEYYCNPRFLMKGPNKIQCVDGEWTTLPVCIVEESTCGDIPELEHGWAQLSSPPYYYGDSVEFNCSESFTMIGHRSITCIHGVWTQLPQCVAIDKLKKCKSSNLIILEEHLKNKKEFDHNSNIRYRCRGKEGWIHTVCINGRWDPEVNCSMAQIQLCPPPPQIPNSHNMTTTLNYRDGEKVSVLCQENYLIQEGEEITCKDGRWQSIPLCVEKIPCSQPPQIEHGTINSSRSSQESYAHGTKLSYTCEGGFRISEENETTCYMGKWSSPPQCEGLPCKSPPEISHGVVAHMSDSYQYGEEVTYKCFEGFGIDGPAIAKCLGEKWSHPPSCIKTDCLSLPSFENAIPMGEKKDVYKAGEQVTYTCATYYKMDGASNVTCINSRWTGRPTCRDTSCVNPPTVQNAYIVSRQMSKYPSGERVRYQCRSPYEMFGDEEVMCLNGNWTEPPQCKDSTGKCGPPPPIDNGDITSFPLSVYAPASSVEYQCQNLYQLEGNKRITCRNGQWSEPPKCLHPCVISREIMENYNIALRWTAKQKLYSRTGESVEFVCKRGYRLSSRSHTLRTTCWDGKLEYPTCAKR

C2a, P06681 = molecular target: T4, C2a, P06681
T4 chain: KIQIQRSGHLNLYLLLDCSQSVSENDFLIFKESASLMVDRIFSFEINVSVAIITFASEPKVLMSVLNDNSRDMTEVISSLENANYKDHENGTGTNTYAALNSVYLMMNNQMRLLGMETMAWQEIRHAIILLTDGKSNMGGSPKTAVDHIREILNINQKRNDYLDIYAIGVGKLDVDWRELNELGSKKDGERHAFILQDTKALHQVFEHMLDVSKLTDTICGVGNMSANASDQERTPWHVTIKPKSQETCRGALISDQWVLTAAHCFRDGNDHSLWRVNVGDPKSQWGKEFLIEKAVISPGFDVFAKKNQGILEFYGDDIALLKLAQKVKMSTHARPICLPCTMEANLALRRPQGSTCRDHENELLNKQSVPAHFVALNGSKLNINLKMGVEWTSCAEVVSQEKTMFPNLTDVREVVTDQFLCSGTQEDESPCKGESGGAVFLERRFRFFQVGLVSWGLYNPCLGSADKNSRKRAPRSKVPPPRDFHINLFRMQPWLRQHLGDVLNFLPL

B1: PrtV(Pro-B) (protein)
chain: DTVNGSESVKTEATQASGSSVQDNATAKTTVTTNSNSSNNVSNVQTDTVKEAATSNVDSVASQNQATTAQQAKTTADTADQTVPPTTYKDHVKGNVQTAWDNGYKGQGMVVAVIDSGADTNHKDFSKAPESPAISKEDADKKISELGYGKYASEKFPFVYNYASRDNNWVKDDGPDASEHGQHVAGIIGADGQPNGNERYAVGVAPETQLMMMRVFNDQFADENTDDIAQAIYDAVKLGANVIQMSLGQGVAAANLNDVEQKAVEYATQHGVFVSISASNNGNSASVTGEEVPYKPGGADGNFEPFSSSTVANPGASRNAMTVAAENSVVGAGDDMADFSSWGPLQDFTLKPDVSAPGVSVTSTGNDNRYNTMSGTSMAGPFNAGVAALVMQRLKATTNLNGADLVQATKALIMNTAKPMTQQGYDTPVSPRRQGAGEIDAGAATESPVYVVAADGTSSVSLRKVGDSTQFALTFKNLSDKDQTYTFDDFGGGLTEVRDADTGTFHDVYLAGAHVYGNKTVTVKAGQSATYNFTLSLTGLKENQLVEGWLRFVGNDGQNQLVVPYLAYYGDMTSEDVFDKAANQEGTVYGGNYFVNEDNYPRGVADEDSLKALVNLEGNYNWQQVAKLYQDGKVAFSPNADGKSDLLKPYAFVKQNLKDLKVEVLDKSGKVVRVVADEQGLDKSYYESGVNKDVTLSVSMRNNPNTLAWDGKVYDDKAGEMVNAADGEYTYRYVATLYNDGVNKVQTADYPVVIDTTAPVLSNVKYDAATHTLSFDYKDTGSGFTDYSYAVVKVNDKTFGYKLNDGKNSKFLDAAKTSGTFKAVLGSDTLAALTAAKNALSVAVSDVADNTSTVTLLVNGNNDATTKVSVWNATNGLELDQSSPDYQAATSTYNLRGNATSDFYYNGALVQVDNSGNFVVPVSTSDTAVVFTSDAAGKNVVYKLNTATPKAVFAWQVNNTVKENFGIVLDTVVSNNKDDVVVQAAVTKGDNVEAYARDYFTGAVYKADVKDGLATFHVKVTNNSGRTVLLGWTEVVGPTFNDVQRTSANGVYLGVDTDTENPTPAPAFTSADQLGTNVVQEKADSATIGNPGDLPGHSLKDLTTRADANPDIHFDYLKDNDYNWVGAQAVKDGVYNPSTQVFTLTGKVDPNVKSLVVLGDSYNEDDPVNKVNLNSDGTFSFQFHTAPTSQRPVAYIYTKDDGSTTRGTMELILDTVLPTLSLNNVANLQLDSNGDYQVYTNNKDFSVSGEATDNLDGYRFFFNGDNDYREFHNSGVNFVAEAHQDGSTVTNPYPAYKFSKTFNLADATGETTHVYTLSVVDLTGNTVTRKFYVHY
[1]
  proteolytic activity (SDS-PAGE): None of the complement proteins tested show evidence of breakdown
[2]
  proteolytic activity (SDS-PAGE): None of the complement proteins tested show evidence of breakdown
Factor H, P08603
  proteolytic activity (SDS-PAGE): None of the complement proteins tested show evidence of breakdown
IP-10
  protein cleavage assay (SDS-PAGE): has activities against
IL-1β
  protein cleavage assay (SDS-PAGE): has activities against
C4
  proteolytic activity (SDS-PAGE): None of the complement proteins tested show evidence of breakdown
C5, P01031
  proteolytic activity (SDS-PAGE): None of the complement proteins tested show evidence of breakdown
IL-3
  protein cleavage assay (SDS-PAGE): has activities against
C2a, P06681
  proteolytic activity (SDS-PAGE): None of the complement proteins tested show evidence of breakdown
IL-17
  protein cleavage assay (SDS-PAGE): has activities against
C3, P01024
  proteolytic activity (SDS-PAGE): None of the complement proteins tested show evidence of breakdown
